Laboratory results taken from the nanobody polyreactivity screen of Harvey et al. (2022).

Assay: yeast display, Sf9 membrane polyspecificity reagent, FACS + sequencing; frameworks hold sequencing errors
How it was run: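 A nanobody's polyreactivity label depends on the gate it was sorted from. Yeast display cells were stained with 10% biotinylated, detergent-solubilized Sf9 membrane reagent for 1 hour at 4 °C, enriched on streptavidin microbeads and sorted by FACS. The low and high (top ~1%) gates were set on anti-HA fluorescence for expression and streptavidin fluorescence for reagent binding.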

| Sequence | polyreactivity (PSR sort gate) |
| --- | --- |
| QVQLVESGGGLVQAGGSLRLSCAASGRTFNSYAMGWYRQAPGKERELVAAISWNTGSTYYADSVKGRFTISRDNAKNTVYLQMNSLKPEDTAVYYCAAEGELYTAFGTLSFDYWGHGTQVTVSS | high polyreactivity |
| QVQLVESGGGLVQAGGSLRLSCAASGSIFRYYVMGWYRQAPGKERELVAAISSGGRTYYADSVKGRFTISRDNAKNTVYLQMNSLKPEDTAVYYCAAGEPTRGDYWGQGTQVTVSS | high polyreactivity |
| QVQLVESGGGLVQAGGSLRLSCAASGFTFRINAMGWYRQAPGKERELVAAITWIGGSTYYADSVKGRFTISRDNAKNTVYLQMNSLKPEDTALYYCAADVYNRWWWRAYDYWGQGTQVTVSS | high polyreactivity |
| QVQLVESGGGFVQAGGSLRLSCAGSGSTFTSYAMGWYRQAPGKERELVASIRSTSGRTYYADSVKGRFTISRDNAKNTVYLQMNSQKPQDTAVYYCAAATYGTWWTYADNPYDYWGQGTQGTVSS | high polyreactivity |
| QVQLVESGGGLVQAGGSLRLSCAATRSIFSLYTMGWYRQAPGKERELVAVISSAGRTYYADSVKGRFTISRDNGKNTVYLQMNSLKPEDTAVYYCARLTGQRTQTRSDYWGQGTQVTVSS | high polyreactivity |
| QVQLVESGGGLVQAGGSLRLSCAASGYIFLTNAMGWYRQAPGKERELVAAISVSGGRTYYADSVKGRFTISRDNAKNTVYLQMNSLKPEDTAVYYCNTLLTYGYDYWGQGTQVTVSS | low polyreactivity |
| QVQLVESGGGLVQAGGSLRLSCAASGSIFNANAMGWYRQAPGKERELVAGIRSGSSTNYADSEKGRFTISRDNAKNTVYLQMNSLKPEDTAVYYCATEGYWVYGFDDEYWGQGTQVTVSS | low polyreactivity |
| QVQLVESGGGFVQAGGSLRLSCAASGRNFFSNAMGWYRQAPGNEWELVASITSRGGTTYYADSVKGRFTISSYNAKNPVYLQMNSVKPEDTAVYYCAALRRSYFGYWGQVTQVTVSS | high polyreactivity |
| QVQLVESGGGLVQAGGSLRLSCAASVFTFYLYAMGWDRQAPGKERELVADITKRGGSTDYADSVKGRFTISRDNAKNTVYLQMNSLKPEDTAVYYCAARGPTFGVDYGYWGQGTQVTVSS | high polyreactivity |
| QVQLVESGGGLVQAGGSLRLSCAASGSIFRYYAMGWYRQAPGKERELVAAISSGTITNYADSVKGRFTISRDNAKNTVYLQMNSLKPEDTAVYYCAADTWYLGYPDYWLDYWGQGTQVTVSS | low polyreactivity |
| QVQLVESGGGLVQAGGSLRLSCAASGRIFVVNAMGWYRQAPGKERELVAAISSSSDSTYYADSVKGRFTISRDNAKNTVYLQMNSLKPEDTAVYYRAADYHYDGYWIYDYWGLGTQVTVSS | high polyreactivity |
| QVQLVESGGGLVQAGGSLRLSCAASGSIFYSYMGWYRQAPGKERECVAAINQRGSSTYYADSVKGRFTISRDNAKNTVYLQMNSLKPEDTAVYDCAAVFFGVYTSRRYYWGQGTQVTVSS | high polyreactivity |
| QVQLVESVGGLLQAGGSLRLSCAASGSIFRGYAMGWYRQAPGKERDLVAAISWSGGSTYYADSVKGRFTISRDNAKNTVYLQMNRLKPEDTAVYYCAADRVVFGYWYYYWGQGTQVTVSS | high polyreactivity |
| QVQLVESGGGLVQAGGSLRLSCAASGIIYHFNDMGWYRQAPGQERELVASIDSTGSTNYADSVKGRFTLSRDNAKNTVYLQMNSLKPEDTAVYYCAVLNHRVDSVLTRYYYWGQGTQVTVSS | low polyreactivity |
| QVQLVESGGGLVQAGGSLRLSCGASGLTCREYAMGWYRQAPGKERELVAAITSTGGNTYYADSVKGRFPISRDNAKNTVYLQMNSLTPEDTAVYYCAARTTRRVTSGKFDYWGQGTQVTVSS | high polyreactivity |
| QVQLVESGGGLVQAGGSLRLSCAASGSTFNYYTMGWYRQEPGKETELVAAISGRVSITYYADSVKGRFTISRDNAKNTVYLQMISLKPEDTAVYYCAAGPGYVRYPRSGVWYVTLYDYWGQGSQVTVSS | high polyreactivity |

| Sequence | polyreactivity (PSR sort gate) |
| --- | --- |
| QVQLVEAGGGLVQAGGSLRLSCGASGLTLTYYAMGGYRQAPGKERELVASISRSGGRTYYADSVKGRFTISRDNAKNPVYLQMNSLKPEDTAVYYCNAAWYRGRYDYWGQGTQVTVSS | high polyreactivity |
| QVQLVESGGGLVQAGGSLRLSCAASGFIFRYFAMGWYRQAPGKERELVAAISRSGGSTYYADSVKGRFTISRDNAKNTVYLQMNSLKPEDTAVYYCAAKDGRSYYDLSPMDYWGQGSQVTVSS | low polyreactivity |
| QVQLVESGGRLVQAGGSLRLTCDASGRTFDYNAMGWYRQAPWKERQLVAAITSRGGSTYYADSVKGRFTISRDNAKNTVYLQMNSLKPEDTAVYYCAAQHSVLAYFEYDYWGQGTQVTVSS | low polyreactivity |
| QVQLVESGGGVVQAGGSLRLSCAASGRIFHRYTMGWYRQARGKERELVAVISGLGGSTYYADSVKGRFTISRDNAKNTVYLQMNSLKPEDTAVYYCNRVGKYWSSDDSWGQGTQVTVSS | high polyreactivity |
| QVQLVESGGGLVQAGGSLRLSCAASGRIFTIYAMGWYRQAPGKERELVAAISDRGTRTYYADSVKGRFTISRDNAKNTVYLQMNSLKPEDTAVYYCATDALYTYGYDYWGQGTQVTVSS | low polyreactivity |
| QVQLVESGGGLVQAGGSLRLSCAASGFSFYSYTMGWYRQAPGSVRELVAAISRSGGRTSYADSVKGRFTNSRDNAKNTVYLQMNSLKPDDTAVYYRNAVRLLQTFAEYEYWGQGTQVTVSS | high polyreactivity |
| QVQLVESGAGLVQAGGSLRLSCASSGFILTGYTMGWYRQAPGKERELVAAISWSGARTYYADSVKGRFTISRDNAKNTVYLQMNSLKPEDTAVYYCARDYYRPTQRYDYWGQGTQVTVSS | high polyreactivity |
| KVQLVESGGRVVQAGGSLRLSCAASGSIFGYNDMGWYRPAPGKERELVATITWGGGRTRYADSVKGRFTISRDNAKKTVYLQMNSLKPEETAVYYCARDRGKITPYDYWGQGTQVTVSS | low polyreactivity |
| QVQLVESGGGLVQAGGSLRLSCAASGFTFSKYTMGWYRPAPGKERELVAAITSGGSTNYADSVKGRFTISRDNAKNTVYLQMNSLKPEDTAVYYCNKRHIAHNGVGAGLELDYWGQGTQVTVSS | low polyreactivity |
| QVQLVESVGGLVQAGGSLRLSCAASGSIFAGYAMGWYRQAPGKERELVAAISRRGGRTYYADSVKGRFTISRDIAKNTVYLQMNSLKPEVTAVYYCNRDYRRSTGSPEYDYWGQGTQVTVSS | high polyreactivity |
| QVQLVESGGGLVQAGGSLRLSSAASGSIFDSNALGWYRQARGKERELVAAISLSGGSTYYADSVKGRFTISRDNAKNTVYLQMKSLKPEDTAVYYCAKDGWYEYYWGQGTQVTVSS | low polyreactivity |
| QVQLVESGGGLVQAGGSLRLSSAASGSIFGSNAMGWSRQAPGKERELVATITTSGGITYYADSVKGRFTISRDNAKNTVYLQMTSLKPEDTAVYYCAAAEGGGLVTYDYWGQGTQVTVSS | low polyreactivity |
| QVQLVESGGGLVQAGGSLRLSCAASGFIFADNTMGWYRQAPGKERELVGAISRRGGSTYYADSVKGRFTISRDNSKNTVYLQMNSLKPEDTAVYYCAARPFVKHDYWGQGTLVTVSS | high polyreactivity |
| QVQLVESGVGLVQAGGSVRLSCAASGRTFYRYAMGWYRQAPGKERELVAAISSGGSTYYADSVKGRFTISRDNAKNTVYLQMNSLKPEDTAVYYCNADYGRRNHMDYWGQGTQVTVSS | low polyreactivity |
| QVQLVESGGGLVQAGGSLRLSCAASGIIFGWYAMGWYRQAPGTERELVADISSDDSTYYADSVKGRFTISRDNAKNTVYLQMNSLKPEDTAVYDCAAETEYYSYRFDYWGQGTQVTVSS | high polyreactivity |
| QVQLVESGGALVQAGGSLRLSCAASGCIFAPYAMGWYRQAPGKERELVADITEDTGITYYADSVKGRFTISRDNAKNNVYLHMNSLKPVDTAVYYCNAEFYFYDYWGQGTQVTVSS | low polyreactivity |
